Test results: patent US12180280 (dated 2024)
Like-named read-outs stand apart in the source and are kept apart here.

T1: human CD3 epsilon (human, UniProt P07766)
T1 chain: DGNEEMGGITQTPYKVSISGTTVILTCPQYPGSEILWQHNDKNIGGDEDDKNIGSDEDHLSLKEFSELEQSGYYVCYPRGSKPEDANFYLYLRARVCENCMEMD

T2: monkey CD3 epsilon (cynomolgus monkey, UniProt Q95LI5)
T2 chain: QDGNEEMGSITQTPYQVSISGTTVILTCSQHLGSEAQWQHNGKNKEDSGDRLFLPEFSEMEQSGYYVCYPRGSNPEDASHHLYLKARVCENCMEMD


What was measured:
Test in all cases: SPR
human CD3 epsilon [1] = target: T1, human CD3 epsilon
monkey CD3 epsilon [2] = target: T2, monkey CD3 epsilon
human CD3 epsilon [3] = target: T1, human CD3 epsilon
monkey CD3 epsilon [4] = target: T2, monkey CD3 epsilon
human CD3 epsilon [5] = target: T1, human CD3 epsilon

| Kd (human CD3 epsilon [1]) | Kd (monkey CD3 epsilon [2]) | Kd (human CD3 epsilon [3]) | Kd (monkey CD3 epsilon [4]) | Kd (human CD3 epsilon [5]) | Binder |
| --- | --- | --- | --- | --- | --- |
| 0.104 nM | 0.777 nM | – | – | – | 15H2L3 (antibody, V domains shown) VH: EVQLLESGGGLVQPGGSLRLSCAASGFTFNTYAMNWVRQAPGKGLEWVARIRSKYNNYATYYAISVKDRFTISRDNSKNTLYLQMNSLRAEDTAVYYCVKHGNFGNSYLSYWAYWGQGTLVTVSS VL: QAVVTQEPSLTVSPGGTVTLTCQSSTGAVTTNNYANWVQQKPGHAFRGLIGGTKQRAPGVPARFSGSLLGGKAALTLSGVQPEDEAEYYCVLWYSNLWVFGGGTKLTVL |
| 0.516 nM | 5.84 nM | – | – | – | 15H2L2 (antibody, V domains shown) VH: EVQLLESGGGLVQPGGSLRLSCAASGFTFNTYAMNWVRQAPGKGLEWVARIRSKYNNYATYYAISVKDRFTISRDNSKNTLYLQMNSLRAEDTAVYYCVKHGNFGNSYLSYWAYWGQGTLVTVSS VL: QTVVTQEPSLTVSPGGTVTLTCQSSTGAVTTNNYANWVQQKPGQAPRALIGGTKQRAPGTPARFSGSLLGGKAALTLSGVQPEDEAEYYCVLWYSNLWVFGGGTKLTVL |
| 0.864 nM | 0.192 nM | – | – | – | 26H3L3 (antibody, V domains shown) VH: EVQLLESGGGLVQPGGSLRLSCAASGFTFNTYAMNWVRQAPGKGLEWVARIRSKYNNYATYYADSVKDRFTISRDDSKNTLYLQMNSLRAEDTAMYYCVRHGNFGNSYISWWAYWGQGTLVTVSS VL: QAVVTQEPSLTVSPGGTVTLTCKSSTGAVTTSNYANWVQQKPGHAFRGLIGGTNLHAPGVPARFSGSLLGGKAALTLSGVQPEDEAEYYCALWYSNLWVFGGGTKLTVL |
| 0.0967 nM | 0.616 nM | – | – | – | 15H3L3 (antibody, V domains shown) VH: EVQLLESGGGLVQPGGSLRLSCAASGFTFNTYAMNWVRQAPGKGLEWVARIRSKYNNYATYYAISVKDRFTISRDDSKNTLYLQMNSLRAEDTAMYYCVRHGNFGNSYLSYWAYWGQGTLVTVSS VL: QAVVTQEPSLTVSPGGTVTLTCQSSTGAVTTNNYANWVQQKPGHAFRGLIGGTKQRAPGVPARFSGSLLGGKAALTLSGVQPEDEAEYYCVLWYSNLWVFGGGTKLTVL |
| 0.205 nM | 0.591 nM | – | – | – | 15H3L2 (antibody, V domains shown) VH: EVQLLESGGGLVQPGGSLRLSCAASGFTFNTYAMNWVRQAPGKGLEWVARIRSKYNNYATYYAISVKDRFTISRDDSKNTLYLQMNSLRAEDTAMYYCVRHGNFGNSYLSYWAYWGQGTLVTVSS VL: QTVVTQEPSLTVSPGGTVTLTCQSSTGAVTTNNYANWVQQKPGQAPRALIGGTKQRAPGTPARFSGSLLGGKAALTLSGVQPEDEAEYYCVLWYSNLWVFGGGTKLTVL |
| 3.95 nM | 2.27 nM | – | – | – | 26H2L3 (antibody, V domains shown) VH: EVQLLESGGGLVQPGGSLRLSCAASGFTFNTYAMNWVRQAPGKGLEWVARIRSKYNNYATYYADSVKDRFTISRDNSKNTLYLQMNSLRAEDTAVYYCVKHGNFGNSYISWWAYWGQGTLVTVSS VL: QAVVTQEPSLTVSPGGTVTLTCKSSTGAVTTSNYANWVQQKPGHAFRGLIGGTNLHAPGVPARFSGSLLGGKAALTLSGVQPEDEAEYYCALWYSNLWVFGGGTKLTVL |
| – | – | 1.79 nM | – | – | MBS303-2 (CD3 arm) (antibody, V domains shown) VH: EVQLLESGGGLVQPGGSLRLSCAASGFTFNTYAMNWVRQAPGKGLEWVARIRSKYNNYATYYAISVKDRFTISRDDSKNTLYLQMNSLRAEDTAMYYCVRHGNFGNSYLSYWAYWGQGTLVTVSS VL: QAVVTQEPSLTVSPGGTVTLTCQSSTGAVTTNNYANWVQQKPGHAFRGLIGGTKQRAPGVPARFSGSLLGGKAALTLSGVQPEDEAEYYCVLWYSNLWVFGGGTKLTVL |
| – | – | 1.99 nM | – | – | MBS303-1 (CD3 arm) (antibody, V domains shown) VH: EVQLLESGGGLVQPGGSLRLSCAASGFTFNTYAMNWVRQAPGKGLEWVARIRSKYNNYATYYAISVKDRFTISRDNSKNTLYLQMNSLRAEDTAVYYCVKHGNFGNSYLSYWAYWGQGTLVTVSS VL: QAVVTQEPSLTVSPGGTVTLTCQSSTGAVTTNNYANWVQQKPGHAFRGLIGGTKQRAPGVPARFSGSLLGGKAALTLSGVQPEDEAEYYCVLWYSNLWVFGGGTKLTVL |
| – | – | 5.6 nM | – | – | CD20-TCB (CD3 arm) (antibody) chain 1: not shown chain 2: QVQLVQSGAEVKKPGSSVKVSCKASGYAFSYSWINWVRQAPGQGLEWMGRIFPGDGDTDYNGKFKGRVTITADKSTSTAYMELSSLRSEDTAVYYCARNVFDGYWLVYWGQGTLVTVSSASTKGPSVFPLAPSSKSTSGGTAALGCLVEDYFPEPVTVSWNSGALTSGVHTFPAVLQSSGLYSLSSVVTVPSSSLGTQTYICNVNHKPSNTKVDEKVEPKSCDKTHTCPPCPAPEAAGGPSVFLFPPKPKDTLMISRTPEVTCVVVDVSHEDPEVKFNWYVDGVEVHNAKTKPREEQYNSTYRVVSVLTVLHQDWLNGKEYKCKVSNKALGAPIEKTISKAKGQPREPQVCTLPPSRDELTKNQVSLSCAVKGFYPSDIAVEWESNGQPENNYKTTPPVLDSDGSFFLVSKLTVDKSRWQQGNVFSCSVMHEALHNHYTQKSLSLSP chain 3: EVQLLESGGGLVQPGGSLRLSCAASGFTFSTYAMNWVRQAPGKGLEWVSRIRSKYNNYATYYADSVKGRFTISRDDSKNTLYLQMNSLRAEDTAVYYCVRHGNFGNSYVSWFAYWGQGTLVTVSSASVAAPSVFIFPPSDEQLKSGTASVVCLLNNFYPREAKVQWKVDNALQSGNSQESVTEQDSKDSTYSLSSTLTLSKADYEKHKVYACEVTHQGLSSPVTKSFNRGEC chain 4: DIVMTQTPLSLPVTPGEPASISCRSSKSLLHSNGITYLYWYLQKPGQSPQLLIYQMSNLVSGVPDRFSGSGSGTDFTLKISRVEAEDVGVYYCAQNLELPYTFGGGTKVEIKRTVAAPSVFIFPPSDRKLKSGTASVVCLLNNFYPREAKVQWKVDNALQSGNSQESVTEQDSKDSTYSLSSTLTLSKADYEKHKVYACEVTHQGLSSPVTKSFNRGEC |
| – | – | – | 0.00379 nM | 0.00628 nM | 19-37 (antibody, V domains shown) VH: EVKLLESGGGLVQPKGSLKLSCAASGFTFNTYAMNWVRQAPGKGLEWVARIRSKYNNYATYYAISVKDRFTISRDDSQSILYLQMNNLKTEDTAMYYCVRHGNFGNSYISYWAYWGQGTLVTVSA VL: QAVVTQESALTTSPGETVTLTCRSSTGAVTTNNYANWVQEKPDHLFTGLIGGTRLSAPGVPARFSGSLIGDKAALTITGAQTEDEAIYFCVLWYSNLWVFGGGTKLTVL |
| – | – | – | 0.237 nM | 0.184 nM | 19-26 (antibody, V domains shown) VH: EVKLLESGGGLVQPKGSLKLSCAASGFTFNTYAMNWVRQAPGKGLEWVARIRSKYNNYATYYADSVKDRFTISRDDSQSILYLQMNNLKTEDTAMYYCVRHGNFGNSYISWWAYWGQGTLVTVSA VL: QAVVTQESALTTSPGETVTLTCKSSTGAVTTSNYANWVQEKPDHLFTGLIGGTNLHAPGVPARFSGSLIGDKAALTITGAQTEDEAIYFCALWYSNLWVFGGGTKLTVL |
| – | – | – | 0.347 nM | 0.222 nM | CD3-19 (antibody, V domains shown) VH: EVKLLESGGGLVQPKGSLKLSCAASGFTFNSYAMNWVRQAPGKGLEWVARIRSKYNNYATYYADSVKDRFTISRDDSQSILYLQMNNLKTEDTAMYYCVRHGNFGNSYLSYWAYWGQGTLVTVSA VL: QAVVTQESALTTSPGETVTLTCDSSTGAVTTSNYANWVQEKPDHLFTGLIGGTQRSAPGVPARFSGSLIGDKAALTITGAQTEDEAIYFCVLWYSNLWVFGGGTKLTVL |
| – | – | – | 0.232 nM | 0.143 nM | 19-15 (antibody, V domains shown) VH: EVKLLESGGGLVQPKGSLKLSCAASGFTFNTYAMNWVRQAPGKGLEWVARIRSKYNNYATYYAISVKDRFTISRDDSQSILYLQMNNLKTEDTAMYYCVRHGNFGNSYLSYWAYWGQGTLVTVSA VL: QAVVTQESALTTSPGETVTLTCQSSTGAVTTNNYANWVQEKPDHLFTGLIGGTKQRAPGVPARFSGSLIGDKAALTITGAQTEDEAIYFCVLWYSNLWVFGGGTKLTVL |
